The values below come from publication PMC4288179, “Synergic interplay of the La motif, RRM1 and the interdomain linker of LARP6 in the recognition of collagen mRNA expands the RNA binding repertoire of the La module”.

Holding throughout (assay): ITC; ITC: 20 mM Tris pH 7.25, 100 mM KCl, 5 mM MgCl2, 1 mM DTT, 298 K; protein titrated into RNA
What all share (details): protein: recombinant; tags: N-terminal His6 (TEV-cleavable); stem-loop with internal bulge

Data set [1] concerns the target T1, HsLARP6(70-300) R249A (Homo sapiens, UniProt Q9BRS8 70-300, R249A).
T1 sequence: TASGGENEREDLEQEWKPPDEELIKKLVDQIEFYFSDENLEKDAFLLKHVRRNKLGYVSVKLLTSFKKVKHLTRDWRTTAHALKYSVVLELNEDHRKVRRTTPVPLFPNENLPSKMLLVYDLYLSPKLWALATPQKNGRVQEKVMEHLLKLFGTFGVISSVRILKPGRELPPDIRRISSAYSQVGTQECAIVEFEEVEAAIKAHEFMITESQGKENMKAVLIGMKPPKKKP

Data set [2] deals with T2, HsLARP6(70-300) R237A (Homo sapiens, UniProt Q9BRS8 70-300, R237A).
T2 sequence: T1 sequence with R168A, A180R

In data set [3] the target is T3, HsLARP6(70-300) R231A (Homo sapiens, UniProt Q9BRS8 70-300, R231A).
T3 sequence: T1 sequence with R162A, A180R

Data set [4] has as its target T4, HsLARP6(70-300) L187A (Homo sapiens, UniProt Q9BRS8 70-300, L187A).
T4 sequence: T1 sequence with L118A, A180R

Data set [5] deals with T5, HsLARP6(70-300) K86A (Homo sapiens, UniProt Q9BRS8 70-300, K86A).
T5 sequence: T1 sequence with K17A, A180R

Data set [6] has as its target T6, HsLARP6(70-300) R244E/R245E/R249E (Homo sapiens, UniProt Q9BRS8 70-300, R244E;R245E;R249E).
T6 sequence: T1 sequence with R175E, R176E, A180E

Changes are numbered by the printed parent chain.

For CCACAAAGAGUCUACAUGUCUAGGGUCUAGACAUGUUCAGCUUUGUGG (structured_RNA) [48 nt RNA (collagen alpha1(I) 5' UTR SL)], the Kd in data set [1] is 26 nM; in data set [2] it was 15 nM; in data set [3], 20 nM; in data set [4], 19 nM; in data set [5] it was 77 nM; in data set [6] it was 27 nM.
